The values that follow come from US20170334947A1.

Assay [1] concerns the target Fab fragment of anti-TNFα monoclonal antibody (generic name: Adalimumab) (humanized monoclonal IgG product (filing's words)). Nature of the assay: affinity chromatography, ligand […]-gel.
Assay [2] shares this target. Nature of the assay: affinity chromatography, ligand 2.0 mg/mL-gel.
Assay [3] shares this target. The assay can be described thus: affinity chromatography, 55% DBC divided by immobilised ligand, 2.0 mg/mL-gel.
Assay [4] has the same target. The assay can be described thus: affinity chromatography, Fab kept after 40 CV wash, ligand […]-gel, 10.5 mg Fab loaded.
The target is the same in assay [5]. Nature of the assay: affinity chromatography, Fab kept after 40 CV wash, ligand 2.0 mg/mL-gel, 5.2 mg Fab loaded.
Assay [6] shares this target. Nature of the assay: affinity chromatography, Fab kept after 40 CV wash, ligand 2.0 mg/mL-gel, 4.8 mg Fab loaded.
The target is the same in assay [7]. The assay can be described thus: affinity chromatography, Protein-G Sepharose FF.

Turning to Pep-SpGβ1-Wild.2dC, the 55% DBC in assay [1] came out at 21 mg/mL-gel; in assay [2], 10.4 mg/mL-gel. In assay [3], this substance yielded a Binding capacity per ligand density of 5.2. The Recovery rate in assay [4] came to 43%; in assay [5], 28%.

Turning to “Protein G ligand of the commercial carrier HiTrap Protein-G HP (GE Healthcare)”, the 55% DBC in assay [2] was 9.7 mg/mL-gel. Also, in assay [6], the Recovery rate is 6%.

In assay [7], “Protein G ligand of the commercial carrier Protein-G Sepharose FF (GE Healthcare)” showed a 55% DBC of 6.2 mg/mL-gel.
